From the RNAGym collection of RNA variant scans (doi:10.7554/elife.90254)

B1: LINE1-full (parent)
chain: UACGUAGGUGGUUUUCCCCUGAUAGUGCUAAGGGGGCCUGGAAGUUUGGACUGGGCAGAGCUCAACACAGCGUGGCAAAGUGGCUGUGGCUAGACUGCCUCUCUGGAUUCCUCGUCACUCAGCAGGGCAUCUCUGAGAGAAAUGCC

Variants of: B1
Assay: self-cleavage, relative activity (ratio to wild type); higher = more cleavage; in vitro, sequencing; the parent is a self-cleaving ribozyme

Variant | self-cleavage
U46C G72A | 0.92
C19U C38A | 1.13
G35A G125U | 1.03
U26C G86A | 0.05
C84A A140G | 0.13
A22G A77G | 1.77
U29G U115C | 0.63
G10U A78G | 1.09
U91A U108C | 0.73
A57C A129G | 0.14
A94U A129G | 0.3
U12C A77U | 1.26
C113A A121G | 1.25
G54A C145U | 0.54
G74U A77G | 1.01
A6G A129U | 0.6
U46C G74A | 0.52
G72C A136G | 1.41
U109C C128A | 1.47
A30G U100C | 1.07
A57U A64G | 0.1
A141C A142C | 0.71
U81C G144A | 0.42
C51U A142G | 1.7

Variant | self-cleavage
G27U C61U | 0.06
U13C A42U | 0.88
U85C G89A | 0.03
G27A A78G | 0.74
G33U A43U | 0.54
U13A C133A | 0.97
G36U U45C | 1.13
C28U U47G | 0.7
U12C C17U | 1.3
U1C U39C | 0.95
C37U A138G | 1.2
U47G | 1.14
U5C U119A | 0.98
A30U G74C | 1.27
A22U U130A | 1.38
A2G A77U | 0.79
C99A | 0.4
U26A A77U | 0.78
C37U U52C | 1.13
U26C G125U | 0.92
G106U A129G | 0.98
G80C G86U | 0.04
U26C U108C | 1.76
G36C U81C | 0.9

Variant | self-cleavage
A59G A138U | 0.12
G32A A124G | 0.69
A79G G144C | 0.77
G8A A57U | 0.16
U13A G126A | 1.08
U15A U109A | 0.47
A121G C123U | 1.07
C18U | 1.17
U102A G127A | 1.08
G32U U73C | 1.1
U102A U115G | 2.51
U14C U132C | 1.43
G75U G139A | 0.89
G40A G82A | 1.73
A59C C131A | 1.15
A69G A77C | 0.61
A65U A77G | 0.3
A94G C113U | 0.09
C63U A69G | 0.17
U62C C99U | 0.04
U14A A64U | 0.48
A43G A69U | 0.08
U13A U112A | 0.45
A2G A6U | 0.53

Variant | self-cleavage
G53A C103A | 1.43
U45C C146A | 1.56
U112C U119C | 1.6
U26C G70A | 0.14
U73C U85A | 0.08
G40U A50G | 0
U96A A129G | 0.07
C19U U91C | 0.62
A78G U87A | 0.1
U45C U87A | 0.09
A43U A94G | 0.12
A64U A142G | 0.47
U130A C145U | 1.79
U20C U87C | 0.24
A43U A64G | 0.42
U20C U39A | 1.48
G53A A136U | 1.47
A67U A69G | 0.03
C98U U115A | 0.44
U52A A94U | 0.52
G74A A140G | 1.22
U9C G75A | 1.4
C98A U108C | 0.4
U1C A140G | 0.99

Variant | self-cleavage
U47A U115A | 1.05
U20C U26A | 0.92
A59G C63U | 0.05
G74U G114A | 1.21
G126C A129G | 2.02
U26G U62A | 0.03
G53A U132C | 1.29
C63U A107G | 0.45
U45C G125C | 1.13
A64U U132G | 0.61
A64G G97A | 0.07
G40A U81C | 1.04
A77C U132C | 1.19
U26C A124U | 1.25
U81C U112C | 1.26
U62C A77G | 0.08
A59G A141U | 0.2
U5C U12G | 1.34
U5C U12C | 0.86
U9G U13C | 0.65
U62C G88U | 0.04
U52C C98G | 0.17
C16U U91C | 0.74
C19U A136G | 0.95

Variant | self-cleavage
U62C C128U | 0.03
U14A U52A | 1.09
U47C U112A | 1.02
U9A U45G | 1.05
U45C U62G | 0
A42C A59G | 0.45
U85G A140G | 0.19
G114A U119A | 1.26
U13C G70C | 0.15
U14C A64G | 0.33
U119C U132G | 2.83
A6U A129U | 1.52
U26C U115A | 1.33
U20C U108C | 1.62
G34A G70A | 0.11
U20C C110U | 1.4
U15A A136G | 1.26
A31C A138G | 1.31
U29C G41A | 1.32
U26C C118U | 1.05
U20C A78U | 1.86
A64G U81C | 0.3
A69G U87C | 0.07
U85A A140G | 0.08

Variant | self-cleavage
C16U U108C | 1.72
U39C A59U | 0.61
G127C | 1.45
U39C G53U | 1.26
U46A U87A | 0.03
A6U A107G | 1.05
U13A A140U | 0.89
G8U A129G | 0.32
U52C C128A | 0.71
A31G U132A | 0.94
G8C A141U | 1.33
A50G U62C | 0.1
G33C U100C | 1.63
C37U A67U | 0.08
G55A U108C | 0.52
A30U A142G | 1.28
A43U G58A | 0.05
G32U A79G | 0.97
U1A G127C | 1.51
U47C C90G | 0.04
C37A A129G | 1.22
U13C A24G | 1.16
A31U U104C | 1.3
G33C U46A | 1.45

Variant | self-cleavage
A6G A69U | 0.22
G25A A94G | 0.21
A59G A129G | 0.07
U102C U104G | 1.6
U15C U20G | 0.52
U5C C90U | 0.11
A92G C110U | 0.05
G54A A142G | 0.83
C16U A67G | 0.45
G114A A124G | 1.5
U46C U81G | 0.54
U23C A42U | 1.22
U13C C111A | 1.57
U14C C37G | 0.56
U47C U100C | 2.49
U62C A136U | 0.05
U29A A92G | 0
G34A U52C | 1.1
U87C U109A | 0.15
A22U U62A | 0
U39C A107G | 1.36
U39C U104C | 1.77
G55A C131G | 0.35
C28U A77C | 1.07

Variant | self-cleavage
G35U U104A | 1.31
U29C U85G | 0.28
G106A U115C | 1.43
U9A U14C | 0.89
U15C A121G | 1.34
A31G G36C | 1.67
A77G A129G | 2.21
U62C G126U | 0.04
A24G G55U | 0.26
U47A U143C | 1.39
U20C C103A | 1.49
U87C C110A | 0.06
G127A A136G | 1.5
U26C G35C | 2.65
A2G G74A | 0.69
A64U A79G | 0.4
U108C U130A | 2.75
U9C U45G | 1.56
U26A G53A | 1.44
A50G A57U | 0.14
G35U U87C | 0.14
C99A U143A | 0.84
G25A A92U | 0.25
U96C G122A | 0.07

Variant | self-cleavage
U85A A138G | 0.07
A69G C123U | 0.45
U46G G114A | 1.18
U20C C28A | 0.84
A31G U62C | 0.13
C17U A77U | 0.36
U52A A64U | 0.46
U52A G58A | 0
G60U A117G | 0.04
U20A C145U | 1.13
A64G U96C | 0.15
A2G U46A | 0.3
G60A | 0.02
A24U A142G | 1.29
U108C A124G | 1.47
U5A A43G | 0.76
U91G U143C | 0.07
U13G A57U | 0.13
U52A A79G | 1.09
U14C U119C | 1.29
G48A A129U | 1.13
A65G C123G | 0.03
U45C | 1.36
A6G G97A | 0.18

Variant | self-cleavage
C145G | 0.55
A64G U85A | 0.07
A57U U104C | 0.15
A69U A77G | 0.07
G25U A43C | 1.32
U45C G139C | 1.63
U91C U143C | 0.78
C19G U26C | 1.2
U20C U143A | 1.5
U14C U81C | 1.43
C17U U143A | 0.85
U20C G36C | 1.51
U87C A129U | 0.15
U9C U47A | 1.18
G35A U104C | 1.42
A2G A121G | 1.44
U1C U87C | 0.1
U13A U87C | 0.16
G89A U132C | 0.06
A77U G93U | 0.04
A50C U143C | 0.82
A78C G122A | 1.41
A42U A107U | 0.92
A6C A31U | 0

Variant | self-cleavage
U5A G106A | 1.14
U102C C113G | 1.08
U15A A124G | 0.76
A121C G127U | 1.44
C56U A69U | 0.02
A64G A141U | 0.17
A24G A129G | 1.19
U119G A129G | 1.15
A6U C95A | 0.07
G32A A107U | 1.27
U14A A121G | 0.94
G34A C103U | 1.7
C90A A107U | 0.03
U26C G33A | 0.7
U85C U104C | 0.18
U73C U119A | 1.64
U108C U143A | 0.26
A6U G97A | 0.12
U26G A59G | 0.41
U12C U143A | 1.25
U20A A92U | 0.92
A79G A107C | 0.92
G11A A50C | 1.24
A79C A141G | 1.96

Variant | self-cleavage
A59U A138G | 0.83
U9A U12A | 0.37
U81C A124U | 0.74
U87C A141U | 0.2
G34A C120U | 1.64
A124G A129G | 0.96
C56U A129U | 0.23
A42G G83A | 0.96
U14C U130A | 1.47
U23C A57G | 1.2
G54A U134G | 0.76
U9A U96C | 0.19
U15A U87A | 0.08
U46A G114C | 1.56
A24G G74A | 0.93
A43G U104A | 0.42
G49A U130C | 1.55
A78G C90U | 0.03
U39A G114U | 1.15
U9C U119A | 1.36
U9C U119C | 1.36
A6G U45G | 0.97
C3A U52G | 1.31
U15A A22U | 1.16

Variant | self-cleavage
A78G U132A | 1.62
U26A U45C | 1.37
A2G A22U | 0.19
A77G C113A | 2.1
U26C A69G | 0.46
U14C U134C | 1.34
A65C A69U | 0.36
G35A A92G | 0.02
C71U C76U | 1.15
C38U A138G | 0.83
A79G U109C | 1.26
A30U A65U | 0.19
C71A U130A | 0.17
G21A A142G | 1.66
G53A A138G | 1.72
G75A U87C | 0.12
C71U A78G | 0.41
C3G U132A | 0.24
A65U G127U | 0.28
A79G C84G | 0.07
G21A A129U | 1.17
A50G U134G | 0.19
